Target: T1, ENaC (Homo sapiens, UniProt P37088+P51168+P51170)
T1 construct: primary cultures of human bronchial epithelial cells (HBEC) harvested from normal human lungs; endogenous in cells; host or cells: primary human bronchial epithelial cells (HBEC) from donor lungs, differentiated at an air-liquid interface
T1 sequence (P37088 1-669): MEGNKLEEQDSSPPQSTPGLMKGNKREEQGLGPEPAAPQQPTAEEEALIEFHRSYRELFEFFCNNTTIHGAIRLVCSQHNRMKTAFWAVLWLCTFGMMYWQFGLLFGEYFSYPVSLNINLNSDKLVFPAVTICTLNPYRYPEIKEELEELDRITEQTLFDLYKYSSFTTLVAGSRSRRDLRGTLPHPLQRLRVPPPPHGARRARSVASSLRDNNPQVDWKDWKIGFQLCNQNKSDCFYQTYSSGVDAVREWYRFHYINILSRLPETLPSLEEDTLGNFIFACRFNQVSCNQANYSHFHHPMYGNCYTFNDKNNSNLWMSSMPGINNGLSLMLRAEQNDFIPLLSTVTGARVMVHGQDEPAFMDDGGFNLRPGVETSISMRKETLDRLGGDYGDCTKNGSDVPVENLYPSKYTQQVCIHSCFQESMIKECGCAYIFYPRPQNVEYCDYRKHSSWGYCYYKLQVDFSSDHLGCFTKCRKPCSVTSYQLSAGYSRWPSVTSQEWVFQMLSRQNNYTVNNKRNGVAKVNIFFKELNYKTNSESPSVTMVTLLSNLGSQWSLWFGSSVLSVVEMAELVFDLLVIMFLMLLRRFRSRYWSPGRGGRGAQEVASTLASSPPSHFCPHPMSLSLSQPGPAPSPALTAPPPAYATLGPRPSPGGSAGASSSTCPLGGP
T1 sequence (P51168 1-640): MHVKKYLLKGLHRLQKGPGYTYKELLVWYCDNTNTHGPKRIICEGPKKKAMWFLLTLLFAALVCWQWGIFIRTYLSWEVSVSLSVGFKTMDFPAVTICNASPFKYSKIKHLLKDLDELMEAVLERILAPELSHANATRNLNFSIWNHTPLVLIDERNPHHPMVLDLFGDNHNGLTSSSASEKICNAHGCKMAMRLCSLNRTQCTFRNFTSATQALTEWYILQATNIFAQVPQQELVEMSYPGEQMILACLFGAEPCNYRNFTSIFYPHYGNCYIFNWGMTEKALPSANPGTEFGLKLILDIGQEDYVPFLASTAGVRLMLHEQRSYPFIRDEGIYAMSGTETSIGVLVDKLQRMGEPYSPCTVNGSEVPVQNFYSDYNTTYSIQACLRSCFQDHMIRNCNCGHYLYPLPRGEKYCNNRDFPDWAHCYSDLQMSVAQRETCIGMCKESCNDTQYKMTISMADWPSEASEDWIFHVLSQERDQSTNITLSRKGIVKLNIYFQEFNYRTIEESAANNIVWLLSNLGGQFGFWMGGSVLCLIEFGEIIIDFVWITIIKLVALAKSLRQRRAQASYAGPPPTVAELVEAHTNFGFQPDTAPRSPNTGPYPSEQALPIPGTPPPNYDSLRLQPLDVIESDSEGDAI
T1 sequence (P51170 1-649): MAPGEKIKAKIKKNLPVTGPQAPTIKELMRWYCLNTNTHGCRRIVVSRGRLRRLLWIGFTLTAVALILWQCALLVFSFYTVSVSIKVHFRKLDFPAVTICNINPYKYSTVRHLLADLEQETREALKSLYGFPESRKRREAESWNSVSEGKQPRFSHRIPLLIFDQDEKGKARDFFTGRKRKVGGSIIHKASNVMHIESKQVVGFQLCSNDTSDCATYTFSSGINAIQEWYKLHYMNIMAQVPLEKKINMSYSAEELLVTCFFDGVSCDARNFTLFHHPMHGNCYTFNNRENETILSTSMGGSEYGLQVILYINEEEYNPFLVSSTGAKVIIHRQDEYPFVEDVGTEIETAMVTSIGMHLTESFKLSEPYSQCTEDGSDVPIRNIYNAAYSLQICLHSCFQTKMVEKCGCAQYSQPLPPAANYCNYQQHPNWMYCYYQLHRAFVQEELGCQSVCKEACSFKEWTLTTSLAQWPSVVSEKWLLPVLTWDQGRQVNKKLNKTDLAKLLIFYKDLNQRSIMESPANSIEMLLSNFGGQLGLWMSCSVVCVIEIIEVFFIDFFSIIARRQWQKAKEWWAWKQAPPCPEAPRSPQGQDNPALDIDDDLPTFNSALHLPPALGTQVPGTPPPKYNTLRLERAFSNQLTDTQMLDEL
Assay: ENaC current (benzamil-sensitive current) in IL-13-treated differentiated HBEC, Examples 1-2
Assay type: cell-based
Experimental: IL-13: abcam (#ab9577); Stock solution: 10 μg/mL water; 20 ng=2 μL Stock/mL media Media change with IL-13 every other day
Experimental design: IL-13 treatment with 20 ng/mL media for 4 and 14 days. Ussing chamber experiment in Basic Ringer (5 mM glucose in basolateral side).
In some embodiments, experimental studies called for determination of: • Baseline values (30 min) • Presence or absence of 6 μM Benzamil (on apical side) (15 min) • Presence or absence of 20 μM CFTRinh 172 (on apical and basolateral sides) (15 min) • Presence or absence 10 μM CaCCinh AO1 (on apical and basolateral sides) (10 min) • Presence or absence of 20 μM Bumetanide (on basolateral side) (15 min)
For Day 0 analysis: • IL-13 treatment: 0 ng/mL media • Ussing chamber experiment in basic ringer or amino acid (AA) formulations. • In addition, S side added 5 mM Glucose
Treatment for 4 days or 14 days analysis: • IL-13 treatment: 20 ng/mL media • Ussing chamber experiment in basic ringer or AA formulations. • In addition, S side added 5 mM Glucose
In some embodiments, the day 4 and day 14 experimental studies called for determination of: • Baseline values (30 min) • Presence or absence of 6 μM Benzamil (on mucosal side) (15 min) • Presence or absence of 20 μM Bumetanide (on serosal side) (15 min) • Presence or absence of 20 μM CFTRinh 172 (on mucosal and serosal sides) (15 min) […]

Substance: IL-13: Th2 cytokine (Abcam) added to HBEC culture medium
- ENaC current versus IL-13 concentration (FIG. 2): dose-dependent reduction
- day of maximum reduction in ENaC current (IL-13 exposure (FIG. 3)): 8 days

From patent publication US20230201151A1, “FORMULATIONS AND METHODS FOR TREATING ACUTE RESPIRATORY DISTRESS SYNDROME, ASTHMA, OR ALLERGIC RHINITIS” (UNIVERSITY OF FLORIDA RESEARCH FOUNDATION, INC., priority 2020, published 2023)
